Numbered stars: 1 amine (or outer) side, 2 acyl side, 3 side chain; on linkers, the order of the positions; unused ones are H or OH. Square brackets hold non-standard residues; d marks the D form. Ends that are not written are not given here. * marks the point of attachment. Nbhp = rac-(2,3-dihydroxy-propylamino)-acetic acid, O=C(CN(CC(O)CO[*:3])[*:1])[*:2]; Nhpr = (3-hydroxy-propylamino)acetic acid, O=C(CN(CCCO[*:3])[*:1])[*:2]; Gluc‑Aoa = (2,3,4,5,6-pentahydroxyhexylidenaminooxy)-acetic acid; Pro(trans-4-NH2) = O=C([C@@H]1C[C@@H](N[*:3])CN1[*:1])[*:2]; Sni = (S)-nipecotic acid, O=C([C@H]1CCCN([*:1])C1)[*:2]; Hyp = O=C(O)[C@@H]1C[C@@H](O)CN1; dAoc(2) = CCCCCC[C@@H](N)C(=O)O; Aoc(2) = CCCCCC[C@H](N)C(=O)O; NMeL = CN[C@@H](CC(C)C)C(=O)O; d(hSer) = N[C@H](CCO)C(=O)O; orn(Me2) = not defined here; dDab = NCC[C@@H](N)C(=O)O; Octanoyl = CCCCCCCC(=O)*; 1270 = not defined here; 1888 = not defined here; 1913 = not defined here; Adx = not defined here; Che = not defined here; Oct = not defined here; aze = not defined here; leu = not defined here; thz = not defined here; Occ = octanoic acid

T1: natriuretic peptide receptor-B (human)
T1 chain: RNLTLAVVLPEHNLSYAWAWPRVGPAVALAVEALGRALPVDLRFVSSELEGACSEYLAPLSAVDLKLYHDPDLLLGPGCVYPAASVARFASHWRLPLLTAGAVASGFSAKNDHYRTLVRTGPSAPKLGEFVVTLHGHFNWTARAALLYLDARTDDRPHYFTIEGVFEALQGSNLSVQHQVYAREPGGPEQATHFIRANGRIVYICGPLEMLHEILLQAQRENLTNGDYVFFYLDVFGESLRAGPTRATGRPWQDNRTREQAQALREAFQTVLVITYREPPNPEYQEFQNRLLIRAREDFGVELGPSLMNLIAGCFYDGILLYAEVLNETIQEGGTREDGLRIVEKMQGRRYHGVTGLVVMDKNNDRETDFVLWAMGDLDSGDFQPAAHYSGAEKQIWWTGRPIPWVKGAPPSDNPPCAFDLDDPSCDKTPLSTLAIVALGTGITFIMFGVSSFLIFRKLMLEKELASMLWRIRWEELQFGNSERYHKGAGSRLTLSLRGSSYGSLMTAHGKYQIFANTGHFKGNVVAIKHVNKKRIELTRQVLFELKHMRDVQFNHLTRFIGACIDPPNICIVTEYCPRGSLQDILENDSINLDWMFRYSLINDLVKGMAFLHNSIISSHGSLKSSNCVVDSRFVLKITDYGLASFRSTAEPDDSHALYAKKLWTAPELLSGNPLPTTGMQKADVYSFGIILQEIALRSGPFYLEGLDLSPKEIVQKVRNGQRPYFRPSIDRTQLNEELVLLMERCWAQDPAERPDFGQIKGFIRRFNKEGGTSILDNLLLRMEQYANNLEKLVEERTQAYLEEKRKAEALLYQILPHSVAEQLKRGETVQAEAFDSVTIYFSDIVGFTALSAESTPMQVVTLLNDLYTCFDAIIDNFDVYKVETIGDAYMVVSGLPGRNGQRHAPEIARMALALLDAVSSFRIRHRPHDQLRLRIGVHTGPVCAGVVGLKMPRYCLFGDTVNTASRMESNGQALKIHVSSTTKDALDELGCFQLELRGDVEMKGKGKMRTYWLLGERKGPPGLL

B1: JAL-1838 (peptide)
peptide: H-[Adx][dAoc(2)][Sni]F[leu]L[Hyp][NMeL]DRI-NH2
modifications: reading uncertain; also: printed as H-Adx-hgl-Sni-Phe-leu-Leu-Hyp-Nml-Asp-Arg-Ile-NH2
B2: JAL-1801 (peptide)
peptide: Octanoyl-[d(hSer)]FLL[Hyp][NMeL]DRI-NH2
modifications: not fully specified (some residues); printed as Occ-hse-Phe-leu-Leu-Hyp-Nml-Asp-Arg-Ile-NH2
B3: JAL-1799 (peptide)
peptide: Octanoyl-[Nbhp]FLL[Hyp][NMeL]DRI-NH2
modifications: not fully specified (some residues); printed as Occ-Nbhp-Phe-leu-Leu-Hyp-Nml-Asp-Arg-Ile-NH2
B4: JAL-1837 (peptide)
peptide: 1888-[dAoc(2)][Sni]FLL[Hyp][NMeL]DRI-NH2
modifications: not fully specified (some residues); printed as 1888-hgl-Sni-Phe-leu-Leu-Hyp-Nml-Asp-Arg-Ile-NH2; reading uncertain
B5: JAL-1807 (peptide)
peptide: Octanoyl-[Aoc(2)][Sni]FLL[Hyp][NMeL]DRI-NH2
modifications: not fully specified (some residues); printed as Occ-Hgl-Sni-Phe-leu-Leu-Hyp-Nml-Asp-Arg-Ile-NH2
B6: JAL-1806 (peptide)
peptide: 1888-[Aoc(2)][Sni]FLL[Hyp][NMeL]DRI-NH2
modifications: not fully specified (some residues); printed as (1888)-Hgl-Sni-Phe-leu-Leu-Hyp-Nml-Asp-Arg-Ile-NH2; reading uncertain
B7: JAL-1784 (peptide)
peptide: Octanoyl-[Sni]F[dDab](Me2)L[Hyp][NMeL]VR[Che]
modifications: reading uncertain; also: printed as Occ-Sni-Phe-dab(Me2)-Leu-Hyp-Nml-Val-Arg-Che
B8: JAL-1846 (peptide)
peptide: [Occ][Sni]F[orn(Me2)]L[Pro(trans-4-NH2)][NMeL]VP[Che]
modifications: reading uncertain; also: printed as Occ-Sni-Phe-orn(Me2)-Leu-Tap-Nml-Val-Pro-Che
B9: JAL-1847 (peptide)
peptide: [Oct][Sni]F[orn(Me2)]L[Hyp][NMeL]VP[Che]
modifications: reading uncertain; also: printed as Oct-Sni-Phe-orn(Me2)-Leu-Hyp-Nml-Val-Pro-Che
B10: JAL-1845 (peptide)
peptide: [Occ][Sni]F[orn(Me2)]L[Hyp][NMeL]VP[Che]
modifications: reading uncertain; also: printed as Occ-Sni-Phe-orn(Me2)-Leu-Hyp-Nml-Val-Pro-Che
B11: JAL-1802 (peptide)
peptide: {Gluc‑Aoa}-[Aoc(2)][Sni]FLL[Hyp][NMeL]DRI-NH2
modifications: not fully specified (some residues); printed as Gluc-Aoa-Hgl-Sni-Phe-leu-Leu-Hyp-Nml-Asp-Arg-Ile-NH2
B12: JAL-1849 (peptide)
peptide: [Oct][Sni]F[leu]L[Pro(trans-4-NH2)][NMeL]VR[Che]
modifications: reading uncertain; also: printed as Oct-Sni-Phe-leu-Leu-Tap-Nml-Val-Arg-Che
B13: JAL-1848 (peptide)
peptide: [Oct][Sni]F[leu]L[Hyp][NMeL]VR[Che]
modifications: reading uncertain; also: printed as Oct-Sni-Phe-leu-Leu-Hyp-Nml-Val-Arg-Che
B14: JAL-1800 (peptide)
peptide: Octanoyl-SFLL[Hyp][NMeL]DRI-NH2
modifications: not fully specified (some residues); printed as Occ-ser-Phe-leu-Leu-Hyp-Nml-Asp-Arg-Ile-NH2
B15: JAL-1798 (peptide)
peptide: Octanoyl-[Nhpr]FLL[Hyp][NMeL]DRI-NH2
modifications: not fully specified (some residues); printed as Occ-Nhpr-Phe-leu-Leu-Hyp-Nml-Asp-Arg-Ile-NH2
B16: JAL-1786 (peptide)
peptide: Octanoyl-[Sni]F[dDab](Me2)L[Hyp][NMeL]VRI-NH2
B17: JAL-1844 (peptide)
peptide: [Oct][Sni]F[leu]L[Pro(trans-4-NH2)][NMeL]VP[Che]
modifications: reading uncertain; also: printed as Oct-Sni-Phe-leu-Leu-Tap-Nml-Val-Pro-Che
B18: JAL-1808 (peptide)
peptide: H-[Adx][Aoc(2)][Sni]FLL[Hyp][NMeL]DRI-NH2
modifications: not fully specified (residue 5); printed as H-Adx-Hgl-Sni-Phe-leu-Leu-Hyp-Nml-Asp-Arg-Ile-NH2; reading uncertain
B19: JAL-1803 (peptide)
peptide: {Gluc‑Aoa}-[dAoc(2)][Sni]FLL[Hyp][NMeL]DRI-NH2
modifications: not fully specified (some residues); printed as Gluc-Aoa-hgl-Sni-Phe-leu-Leu-Hyp-Nml-Asp-Arg-Ile-NH2
B20: JAL-0740 (peptide)
peptide: Octanoyl-[aze]FGLKLDRI-NH2
modifications: reading uncertain; also: printed as Occ-aze-Phe-Gly-Leu-Lys-Leu-Asp-Arg-Ile-NH2
B21: JAL-1785 (peptide)
peptide: Octanoyl-[Sni]F[dDab](Me2)L[Hyp][NMeL]DRI-NH2
B22: JAL-0739 (peptide)
peptide: Octanoyl-[thz]FGLKLDRI-NH2
modifications: reading uncertain; also: printed as Occ-thz-Phe-Gly-Leu-Lys-Leu-Asp-Arg-Ile-NH2
B23: JAL-1805 (peptide)
peptide: 1270-[Aoc(2)][Sni]FLL[Hyp][NMeL]DRI-NH2
modifications: not fully specified (some residues); printed as (1270)-Hgl-Sni-Phe-leu-Leu-Hyp-Nml-Asp-Arg-Ile-NH2; reading uncertain
B24: JAL-0738 (peptide)
peptide: Octanoyl-[dA]FGLKLDRI-NH2
B25: JAL-1843 (peptide)
peptide: [Oct][Sni]F[leu]L[Pro(trans-4-NH2)][NMeL]DR[Che]
modifications: reading uncertain; also: printed as Oct-Sni-Phe-leu-Leu-Tap-Nml-Asp-Arg-Che
B26: JAL-1850 (peptide)
peptide: [Occ][Sni]F[orn(Me2)]L[Pro(trans-4-NH2)][NMeL]VR[Che]
modifications: reading uncertain; also: printed as Occ-Sni-Phe-orn(Me2)-Leu-Tap-Nml-Val-Arg-Che
B27: JAL-1804 (peptide)
peptide: 1913-[Aoc(2)][Sni]FLL[Hyp][NMeL]DRI-NH2
modifications: not fully specified (some residues); printed as (1913)-Hgl-Sni-Phe-leu-Leu-Hyp-Nml-Asp-Arg-Ile-NH2; reading uncertain

For this assay, the target named is T1, natriuretic peptide receptor-B. Description: cell-based or functional assay.
As to B1, the “EC50 group, cGMP in GTM-3 cells” value is at most 5 µM.
In the case of B2 it was at most 5 µM; in that of B3, at most 5 µM; in that of B4, at most 5 µM.
The figure for B5 is at most 15 µM.
In the case of B6 it was at most 5 µM.
On to B7, for which the “EC50 group, cGMP in GTM-3 cells” value was at most 1 µM.
In the case of B8 it was at most 5 µM; in that of B9, at most 15 µM.
The figure for B10 is at most 5 µM; for B11 it is at most 5 µM.
The figure for B12 is at most 5 µM; for B13 it is at most 5 µM; for B14 it is at most 5 µM.
Consider B15, for which the “EC50 group, cGMP in GTM-3 cells” value was at most 5 µM.
In the case of B16 it was at most 5 µM; in that of B17, at most 5 µM.
The figure for B18 is at most 1 µM.
In the case of B19 it was at most 1 µM.
Take B20: the “EC50 group, cGMP in GTM-3 cells” value is at most 15 µM.
The figure for B21 is at most 1 µM.
For B22, the “EC50 group, cGMP in GTM-3 cells” value is at most 15 µM.
In the case of B23, the “EC50 group, cGMP in GTM-3 cells” value is at most 15 µM.
The figure for B24 is at most 15 µM; for B25 it is at most 1 µM.
In the case of B26 it was at most 1 µM; in that of B27, at most 5 µM.
